In the series the test system is O=c1[nH]c(=O)c2[nH]cnc2[nH]1. Description: cells, lysate or membranes. Conditions: labelled compound, H+ symport, MM pH 6.8, 37 °C.

For UapA (Aspergillus nidulans FGSC A4), the Km (commonly the substrate concentration at which the rate is half of its maximum) is 5 ± 2 µM.

“UapA (Aspergillus nidulans FGSC A4; K73A/R133A)”: the Km was determined as 3.6 µM.

These data come from article doi:10.1101/710897v1.
